B1: GpH7-B3 variant S337_04F/GpL16-k0 (antibody, human IgG1, kappa)
heavy: not shown
light: DIVMTQSPLSLPVTPGEPASISCQASESLVHSNRNTYLHWYLQKPGQSPQLLIYKVSNRFSGVPDRFSGSGSGTDFTLKISRVEAEDVGVYYCSQNTHVPPTFGQGTKVEIERTVAAPSVFIFPPSDEQLKSGTASVVCLLNNFYPREAKVQWKVDNALQSGNSQESVTEQDSKDSTYSLSSTLTLSKADYEKHKVYACEVTHQGLSSPVTKSFNRGEC
notes: also called Ho Ab S337_04F
B2: GpH7-B3 variant I332_01G/GpL16-k0 (antibody, human IgG1, kappa)
heavy: not shown
light: B1 light
notes: also called Ho Ab I332_01G
B3: GpH7-B3-03-20W/GpL16-k0 (antibody, human IgG1, kappa)
heavy: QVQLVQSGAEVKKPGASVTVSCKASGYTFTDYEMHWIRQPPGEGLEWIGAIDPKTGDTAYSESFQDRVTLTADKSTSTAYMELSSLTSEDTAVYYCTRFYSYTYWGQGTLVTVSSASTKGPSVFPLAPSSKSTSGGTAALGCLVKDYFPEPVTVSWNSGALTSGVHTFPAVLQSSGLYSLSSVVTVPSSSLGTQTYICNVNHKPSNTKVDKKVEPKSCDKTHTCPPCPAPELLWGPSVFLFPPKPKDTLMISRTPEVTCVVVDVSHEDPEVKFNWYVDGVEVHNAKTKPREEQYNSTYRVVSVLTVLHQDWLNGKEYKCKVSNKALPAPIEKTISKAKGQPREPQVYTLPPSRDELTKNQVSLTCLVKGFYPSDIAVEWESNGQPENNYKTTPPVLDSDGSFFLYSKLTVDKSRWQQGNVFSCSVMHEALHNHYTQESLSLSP
light: B1 light
notes: also called Ho Ab G236_20W; GpH7-B3 variant G236_20W/GpL16-k0
B4: GpH7-B3 variant S337_09D/GpL16-k0 (antibody, human IgG1, kappa)
heavy: not shown
light: B1 light
notes: also called Ho Ab S337_09D
B5: GpH7-B3 variant I336_08L/GpL16-k0 (antibody, human IgG1, kappa)
heavy: not shown
light: B1 light
notes: also called Ho Ab I336_08L
B6: GpH7-B3 variant G236_15Y/GpL16-k0 (antibody, human IgG1, kappa)
heavy: not shown
light: B1 light
notes: also called Ho Ab G236_15Y
B7: GpH7-B3 variant L234_20W/GpL16-k0 (antibody, human IgG1, kappa)
heavy: not shown
light: B1 light
notes: also called Ho Ab L234_20W
B8: GpH7-B3 variant S298_14T/GpL16-k0 (antibody, human IgG1, kappa)
heavy: not shown
light: B1 light
notes: also called Ho Ab S298_14T
B9: GpH7-B3 variant P238_09D/GpL16-k0 (antibody, human IgG1, kappa)
heavy: not shown
light: B1 light
notes: also called Ho Ab P238_09D
B10: GpH7-B3 variant K326_07I/GpL16-k0 (antibody, human IgG1, kappa)
heavy: not shown
light: B1 light
notes: also called Ho Ab K326_07I
B11: GpH7-B3 variant S337_10E/GpL16-k0 (antibody, human IgG1, kappa)
heavy: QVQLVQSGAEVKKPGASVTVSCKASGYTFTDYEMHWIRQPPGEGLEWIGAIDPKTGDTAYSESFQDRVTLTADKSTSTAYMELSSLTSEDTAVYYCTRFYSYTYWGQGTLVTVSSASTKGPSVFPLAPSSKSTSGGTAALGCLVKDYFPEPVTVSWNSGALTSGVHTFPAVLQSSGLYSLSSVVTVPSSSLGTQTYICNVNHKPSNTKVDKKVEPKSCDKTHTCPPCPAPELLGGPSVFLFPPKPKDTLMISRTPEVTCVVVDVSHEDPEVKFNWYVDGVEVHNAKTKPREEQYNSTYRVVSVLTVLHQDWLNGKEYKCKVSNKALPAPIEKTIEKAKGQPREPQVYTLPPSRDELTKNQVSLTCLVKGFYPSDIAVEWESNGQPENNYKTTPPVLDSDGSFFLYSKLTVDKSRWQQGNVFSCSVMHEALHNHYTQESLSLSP
light: B1 light
notes: also called Ho Ab S337_10E
B12: GpH7-B3 variant E333_04F/GpL16-k0 (antibody, human IgG1, kappa)
heavy: not shown
light: B1 light
notes: also called Ho Ab E333_04F
B13: GpH7-B3 variant S267_09D/GpL16-k0 (antibody, human IgG1, kappa)
heavy: not shown
light: B1 light
notes: also called Ho Ab S267_09D
B14: GpH7-B3 variant H268_02A/GpL16-k0 (antibody, human IgG1, kappa)
heavy: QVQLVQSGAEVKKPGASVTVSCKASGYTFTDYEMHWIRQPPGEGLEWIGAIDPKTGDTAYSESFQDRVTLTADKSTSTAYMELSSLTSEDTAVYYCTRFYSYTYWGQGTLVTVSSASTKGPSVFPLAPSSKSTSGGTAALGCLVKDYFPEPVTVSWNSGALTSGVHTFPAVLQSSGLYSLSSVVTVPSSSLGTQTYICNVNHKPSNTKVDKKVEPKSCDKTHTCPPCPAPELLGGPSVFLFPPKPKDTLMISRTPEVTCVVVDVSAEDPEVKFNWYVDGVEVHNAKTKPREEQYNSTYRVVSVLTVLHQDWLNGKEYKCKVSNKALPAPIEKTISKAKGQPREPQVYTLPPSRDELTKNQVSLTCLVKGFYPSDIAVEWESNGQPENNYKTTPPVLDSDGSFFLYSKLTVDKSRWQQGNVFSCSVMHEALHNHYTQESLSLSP
light: B1 light
notes: also called Ho Ab H268_02A
B15: GpH7-B3 variant S337_20W/GpL16-k0 (antibody, human IgG1, kappa)
heavy: not shown
light: B1 light
notes: also called Ho Ab S337_20W
B16: GpH7-B3 variant S324_02A/GpL16-k0 (antibody, human IgG1, kappa)
heavy: not shown
light: B1 light
notes: also called Ho Ab S324_02A
B17: GpH7-B3 variant S324_15Y/GpL16-k0 (antibody, human IgG1, kappa)
heavy: not shown
light: B1 light
notes: also called Ho Ab S324_15Y
B18: GpH7-B3 variant I336_03V/GpL16-k0 (antibody, human IgG1, kappa)
heavy: not shown
light: B1 light
notes: also called Ho Ab I336_03V
B19: GpH7-B3 variant L234_07I/GpL16-k0 (antibody, human IgG1, kappa)
heavy: not shown
light: B1 light
notes: also called Ho Ab L234_07I
B20: GpH7-B3 variant T335_16H/GpL16-k0 (antibody, human IgG1, kappa)
heavy: not shown
light: B1 light
notes: also called Ho Ab T335_16H
B21: GpH7-B3 variant T335_19Q/GpL16-k0 (antibody, human IgG1, kappa)
heavy: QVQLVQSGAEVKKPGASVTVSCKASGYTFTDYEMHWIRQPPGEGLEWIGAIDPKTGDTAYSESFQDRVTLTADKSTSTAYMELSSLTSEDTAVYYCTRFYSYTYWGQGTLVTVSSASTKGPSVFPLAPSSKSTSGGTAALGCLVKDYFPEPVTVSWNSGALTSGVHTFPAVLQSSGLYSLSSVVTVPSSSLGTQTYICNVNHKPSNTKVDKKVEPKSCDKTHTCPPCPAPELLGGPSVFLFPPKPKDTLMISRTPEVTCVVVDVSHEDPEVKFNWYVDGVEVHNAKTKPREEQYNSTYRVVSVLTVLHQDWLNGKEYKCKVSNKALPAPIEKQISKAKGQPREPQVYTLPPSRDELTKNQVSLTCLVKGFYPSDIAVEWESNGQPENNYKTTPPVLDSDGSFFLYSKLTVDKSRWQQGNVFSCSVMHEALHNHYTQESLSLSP
light: B1 light
notes: also called Ho Ab T335_19Q
B22: GpH7-B3 variant Q295_14T/GpL16-k0 (antibody, human IgG1, kappa)
heavy: not shown
light: B1 light
notes: also called Ho Ab Q295_14T
B23: GpH7-B3 variant S337_15Y/GpL16-k0 (antibody, human IgG1, kappa)
heavy: not shown
light: B1 light
notes: also called Ho Ab S337_15Y
B24: GpH7-B3 variant T335_20W/GpL16-k0 (antibody, human IgG1, kappa)
heavy: not shown
light: B1 light
notes: also called Ho Ab T335_20W
B25: GpH7-B3 variant T335_13S/GpL16-k0 (antibody, human IgG1, kappa)
heavy: not shown
light: B1 light
notes: also called Ho Ab T335_13S
B26: GpH7-B3 variant E333_03V/GpL16-k0 (antibody, human IgG1, kappa)
heavy: not shown
light: B1 light
notes: also called Ho Ab E333_03V
B27: GpH7-B3 variant S337_18N/GpL16-k0 (antibody, human IgG1, kappa)
heavy: not shown
light: B1 light
notes: also called Ho Ab S337_18N
B28: GpH7-B3 variant K334_01G/GpL16-k0 (antibody, human IgG1, kappa)
heavy: not shown
light: B1 light
notes: also called Ho Ab K334_01G
B29: GpH7-B3 variant E333_20W/GpL16-k0 (antibody, human IgG1, kappa)
heavy: not shown
light: B1 light
notes: also called Ho Ab E333_20W
B30: GpH7-B3 variant S267_02A/GpL16-k0 (antibody, human IgG1, kappa)
heavy: not shown
light: B1 light
notes: also called Ho Ab S267_02A
B31: GpH7-B3 variant P271_01G/GpL16-k0 (antibody, human IgG1, kappa)
heavy: not shown
light: B1 light
notes: also called Ho Ab P271_01G
B32: GpH7-B3 variant S324_16H/GpL16-k0 (antibody, human IgG1, kappa)
heavy: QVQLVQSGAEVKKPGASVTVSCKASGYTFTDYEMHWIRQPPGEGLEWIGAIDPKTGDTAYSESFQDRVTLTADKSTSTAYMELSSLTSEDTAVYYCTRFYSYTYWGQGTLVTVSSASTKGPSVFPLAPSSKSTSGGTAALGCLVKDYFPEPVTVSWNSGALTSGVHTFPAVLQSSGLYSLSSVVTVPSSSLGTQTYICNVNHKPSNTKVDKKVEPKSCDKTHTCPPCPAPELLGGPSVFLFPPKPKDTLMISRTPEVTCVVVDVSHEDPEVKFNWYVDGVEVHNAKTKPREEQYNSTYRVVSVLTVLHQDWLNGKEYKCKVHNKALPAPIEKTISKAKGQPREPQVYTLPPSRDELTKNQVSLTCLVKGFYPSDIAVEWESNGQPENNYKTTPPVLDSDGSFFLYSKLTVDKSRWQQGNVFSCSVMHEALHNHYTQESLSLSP
light: B1 light
notes: also called Ho Ab S324_16H
B33: GpH7-B3 variant E333_13S/GpL16-k0 (antibody, human IgG1, kappa)
heavy: not shown
light: B1 light
notes: also called Ho Ab E333_13S
B34: GpH7-B3 variant K326_08L/GpL16-k0 (antibody, human IgG1, kappa)
heavy: not shown
light: B1 light
notes: also called Ho Ab K326_08L
B35: GpH7-B3 variant A330_05P/GpL16-k0 (antibody, human IgG1, kappa)
heavy: not shown
light: B1 light
notes: also called Ho Ab A330_05P
B36: GpH7-B3-01-15Y/GpL16-k0 (antibody, human IgG1, kappa)
heavy: not shown
light: B1 light
notes: also called Ho Ab L234_15Y; GpH7-B3 variant L234_15Y/GpL16-k0
B37: GpH7-B3 variant I336_06M/GpL16-k0 (antibody, human IgG1, kappa)
heavy: not shown
light: B1 light
notes: also called Ho Ab I336_06M
B38: GpH7-B3 variant V266_08L/GpL16-k0 (antibody, human IgG1, kappa)
heavy: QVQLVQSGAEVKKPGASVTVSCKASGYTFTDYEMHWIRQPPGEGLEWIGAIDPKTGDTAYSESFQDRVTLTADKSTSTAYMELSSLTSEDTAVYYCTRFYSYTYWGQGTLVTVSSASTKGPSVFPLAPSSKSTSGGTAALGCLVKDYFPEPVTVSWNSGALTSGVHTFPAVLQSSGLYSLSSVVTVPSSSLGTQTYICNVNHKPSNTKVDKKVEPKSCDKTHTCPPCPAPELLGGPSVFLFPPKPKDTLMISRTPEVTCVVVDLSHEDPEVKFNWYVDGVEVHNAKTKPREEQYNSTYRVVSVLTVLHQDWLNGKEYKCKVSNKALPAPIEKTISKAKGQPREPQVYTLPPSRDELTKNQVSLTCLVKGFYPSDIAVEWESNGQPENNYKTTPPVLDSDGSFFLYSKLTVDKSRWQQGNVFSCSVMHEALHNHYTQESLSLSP
light: B1 light
notes: also called Ho Ab V266_08L
B39: GpH7-B3 variant E333_09D/GpL16-k0 (antibody, human IgG1, kappa)
heavy: not shown
light: B1 light
notes: also called Ho Ab E333_09D
B40: GpH7-B3 variant I336_18N/GpL16-k0 (antibody, human IgG1, kappa)
heavy: not shown
light: B1 light
notes: also called Ho Ab I336_18N
B41: GpH7-B3 variant S337_14T/GpL16-k0 (antibody, human IgG1, kappa)
heavy: not shown
light: B1 light
notes: also called Ho Ab S337_14T
B42: GpH7-B3 variant A330_07I/GpL16-k0 (antibody, human IgG1, kappa)
heavy: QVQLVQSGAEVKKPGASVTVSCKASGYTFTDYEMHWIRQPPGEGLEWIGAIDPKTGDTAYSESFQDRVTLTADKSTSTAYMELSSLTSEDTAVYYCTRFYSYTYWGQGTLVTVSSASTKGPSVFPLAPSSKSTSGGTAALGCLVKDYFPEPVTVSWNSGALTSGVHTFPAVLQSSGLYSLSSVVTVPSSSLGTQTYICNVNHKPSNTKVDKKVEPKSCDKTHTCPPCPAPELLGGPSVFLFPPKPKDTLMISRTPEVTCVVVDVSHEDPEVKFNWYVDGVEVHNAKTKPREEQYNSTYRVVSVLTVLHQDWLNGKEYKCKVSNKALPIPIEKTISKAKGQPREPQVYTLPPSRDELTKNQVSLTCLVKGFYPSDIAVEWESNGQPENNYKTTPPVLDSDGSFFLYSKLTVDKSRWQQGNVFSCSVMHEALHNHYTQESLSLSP
light: B1 light
notes: also called Ho Ab A330_07I
B43: GpH7-B16/GpL16-k0 (antibody, human IgG1, kappa)
heavy: not shown
light: B1 light
notes: also called Ho Ab L234_10E; GpH7-B3 variant L234_10E/GpL16-k0
B44: GpH7-B3 variant I332_06M/GpL16-k0 (antibody, human IgG1, kappa)
heavy: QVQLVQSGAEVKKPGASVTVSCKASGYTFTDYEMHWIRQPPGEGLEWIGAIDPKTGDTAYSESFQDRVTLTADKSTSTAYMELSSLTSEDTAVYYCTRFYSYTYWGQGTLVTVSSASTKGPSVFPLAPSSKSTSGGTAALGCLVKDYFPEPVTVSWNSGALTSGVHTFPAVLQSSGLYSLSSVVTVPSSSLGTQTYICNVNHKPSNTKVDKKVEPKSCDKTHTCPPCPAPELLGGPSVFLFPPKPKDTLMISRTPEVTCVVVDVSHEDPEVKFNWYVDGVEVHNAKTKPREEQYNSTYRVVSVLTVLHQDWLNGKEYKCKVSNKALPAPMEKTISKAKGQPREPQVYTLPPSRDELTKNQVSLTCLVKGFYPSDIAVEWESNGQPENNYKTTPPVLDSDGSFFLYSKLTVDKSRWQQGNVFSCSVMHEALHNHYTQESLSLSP
light: B1 light
notes: also called Ho Ab I332_06M
B45: GpH7-B3 variant K334_09D/GpL16-k0 (antibody, human IgG1, kappa)
heavy: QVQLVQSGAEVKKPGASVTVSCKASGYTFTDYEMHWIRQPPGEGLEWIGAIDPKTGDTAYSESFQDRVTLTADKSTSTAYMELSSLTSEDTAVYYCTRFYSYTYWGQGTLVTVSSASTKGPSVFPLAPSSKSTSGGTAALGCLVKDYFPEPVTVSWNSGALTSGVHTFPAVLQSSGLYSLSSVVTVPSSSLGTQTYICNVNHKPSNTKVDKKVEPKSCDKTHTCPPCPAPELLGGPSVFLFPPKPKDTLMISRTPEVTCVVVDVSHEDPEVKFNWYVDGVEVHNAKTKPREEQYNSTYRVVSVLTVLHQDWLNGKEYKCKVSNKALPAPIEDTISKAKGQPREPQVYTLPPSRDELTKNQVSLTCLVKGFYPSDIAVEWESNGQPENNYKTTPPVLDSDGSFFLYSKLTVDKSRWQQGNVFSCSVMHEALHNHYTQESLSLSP
light: B1 light
notes: also called Ho Ab K334_09D
B46: GpH7-B3 variant H268_18N/GpL16-k0 (antibody, human IgG1, kappa)
heavy: not shown
light: B1 light
notes: also called Ho Ab H268_18N
B47: GpH7-B3 variant T335_07I/GpL16-k0 (antibody, human IgG1, kappa)
heavy: not shown
light: B1 light
notes: also called Ho Ab T335_07I
B48: GpH7-B3 variant L234_04F/GpL16-k0 (antibody, human IgG1, kappa)
heavy: not shown
light: B1 light
notes: also called Ho Ab L234_04F
B49: GpH7-B17/GpL16-k0 (antibody, human IgG1, kappa)
heavy: not shown
light: B1 light
notes: also called Ho Ab L234_09D; GpH7-B3 variant L234_09D/GpL16-k0
B50: GpH7-B3 variant P238_10E/GpL16-k0 (antibody, human IgG1, kappa)
heavy: not shown
light: B1 light
notes: also called Ho Ab P238_10E
B51: GpH7-B3 variant T335_15Y/GpL16-k0 (antibody, human IgG1, kappa)
heavy: not shown
light: B1 light
notes: also called Ho Ab T335_15Y
B52: GpH7-B3 variant I336_02A/GpL16-k0 (antibody, human IgG1, kappa)
heavy: not shown
light: B1 light
notes: also called Ho Ab I336_02A
B53: GpH7-B3 variant E333_02A/GpL16-k0 (antibody, human IgG1, kappa)
heavy: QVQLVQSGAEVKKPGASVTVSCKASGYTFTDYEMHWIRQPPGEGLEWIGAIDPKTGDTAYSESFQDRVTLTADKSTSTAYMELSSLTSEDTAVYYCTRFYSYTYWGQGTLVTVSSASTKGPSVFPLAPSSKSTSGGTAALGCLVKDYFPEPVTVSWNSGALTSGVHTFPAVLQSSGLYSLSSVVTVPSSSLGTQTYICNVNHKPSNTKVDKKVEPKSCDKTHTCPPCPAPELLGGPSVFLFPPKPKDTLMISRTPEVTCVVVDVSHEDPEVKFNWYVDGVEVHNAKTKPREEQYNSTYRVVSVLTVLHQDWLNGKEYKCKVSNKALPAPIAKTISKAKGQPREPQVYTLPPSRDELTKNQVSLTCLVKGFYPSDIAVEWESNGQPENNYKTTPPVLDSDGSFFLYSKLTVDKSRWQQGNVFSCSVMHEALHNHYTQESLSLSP
light: B1 light
notes: also called Ho Ab E333_02A
B54: GpH7-B3 variant T335_10E/GpL16-k0 (antibody, human IgG1, kappa)
heavy: not shown
light: B1 light
notes: also called Ho Ab T335_10E

molecular target: T1, FcγRIIIa extracellular domain with C-terminal His tag (human, UniProt P08637 17-208); test: SPR relative binding; GpH7-B3/GpL16-k0 = 100
T1 construct: extracellular domain; also called FcgRIIIa; 3a; not shown: His tag at the C terminus
Experimental: Analysis of interaction between objective antibody and the FcγR was carried out using Biacore T100 (GE Healthcare). HBS-EP+ (GE Healthcare) was used as the running buffer, and the measurement temperature was set to 25° C. Chips produced by immobilizing the antigen peptide by the amine coupling method to a Series S Sencor Chip CM5 (GE Healthcare), or alternatively, chips produced by allowing preliminarily biotinylated antigen peptides to interact with and immobilize onto a Series S Sensor Chip SA (certified) (GE Healthcare) were used. Antibodies of interest were captured onto an antigen peptide-immobilized chip, and allowed to interact to each FcγR diluted with running buffer. To regenerate and repeatedly use the chip, the antibodies captured on the chip were washed off by reacting 10 mM glycine-HCl, pH 1.5.
The FcγR-binding activity of each antibody was assessed primarily using as an indicator the FcγR-binding activity and dissociation constant for FcγR.

T1 sequence (P08637 17-208): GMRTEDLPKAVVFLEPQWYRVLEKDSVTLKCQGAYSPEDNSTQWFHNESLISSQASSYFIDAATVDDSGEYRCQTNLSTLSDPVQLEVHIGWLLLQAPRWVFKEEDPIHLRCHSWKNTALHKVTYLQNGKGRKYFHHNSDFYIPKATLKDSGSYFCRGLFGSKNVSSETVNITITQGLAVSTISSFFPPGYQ

Ho/Con_3a	Binder
95.6 % of control	B1
104 % of control	B2
58.3 % of control	B3
106 % of control	B4
95.8 % of control	B5
41.6 % of control	B6
37.1 % of control	B7
107 % of control	B8
-0.1 % of control	B9
134 % of control	B10
100 % of control	B11
87.1 % of control	B12
160 % of control	B13
118 % of control	B14
87.8 % of control	B15
99.8 % of control	B16
100 % of control	B17
110 % of control	B18
98.2 % of control	B19
99.5 % of control	B20
97.7 % of control	B21
108 % of control	B22
99 % of control	B23
91.8 % of control	B24
97.6 % of control	B25
86.5 % of control	B26
102 % of control	B27

Ho/Con_3a	Binder
104 % of control	B28
90.9 % of control	B29
145 % of control	B30
88 % of control	B31
103 % of control	B32
95.1 % of control	B33
114 % of control	B34
56.6 % of control	B35
64.7 % of control	B36
107 % of control	B37
90.5 % of control	B38
109 % of control	B39
101 % of control	B40
97.2 % of control	B41
93 % of control	B42
64.7 % of control	B43
95.4 % of control	B44
150 % of control	B45
90.3 % of control	B46
107 % of control	B47
49.9 % of control	B48
52.8 % of control	B49
0.8 % of control	B50
91.5 % of control	B51
104 % of control	B52
93.3 % of control	B53
102 % of control	B54

From US20180155451A1 (published 2018)
